{"source": "patent US8029979B2", "about": "“Method for determining the substrate specificity of an enzyme” (JPT Peptide Technologies GmbH, priority 2001, dated 2011)", "key": {"protein kinase A [1]": {"target": "T1, protein kinase A (Bos taurus, UniProt P00517)", "T1 construct": "purchased Sigma P26452 as printed", "test": "Incubation of modified glass surface with protein kinase A under cover glass (FIG. 5, Example 26)", "type": "biochemical", "conditions": "protein kinase A 10 U/mL, 30 min at 25° C.", "method": "FIG. 3. The peptide Leu-Arg-Arg-Ala-Ser-Leu-Gly-NH2, modified at the N-terminus with the dipeptide cysteinyl-β-alanine, was coupled to maleinimido-functionalised surfaces by a Michael addition (maleinimido-functionalised glass surface, Sigma, Silane-Prep™, S4651; as well as maleinimidobutyryl-β-alanine-functionalised, modified polypropylene membranes). The modified glass surfaces were first pre-incubated for 10 minutes using 20 mL of 100 μM ATP solution in 50 mM of sodium phosphate buffer pH 7.5. […] (Example 31). The phosphorylation of the corresponding peptides was detected using a FUJIFILM PhosphorImager. The signal intensity of the respective spot is given below the figures. […] FIG. 4. The control peptide Leu-Arg-Arg-Ala-Ala-Leu-Gly-NH2, the peptide […] and the synthesis raw product […], each modified at the N-terminus with the dipeptide cysteinyl-β-alanine, were coupled to a maleinimido-functionalised glass surface by a Michael addition (Example 1). […] After incubation for 30 min at 25° C. the phosphorylation of the corresponding peptides was detected using a FUJIFILM PhosphorImager. […] After incubation for 30 min at 25° C. the phosphorylation of the corresponding peptides was detected using a FUJIFILM PhosphorImager. […]"}, "protein kinase A [2]": {"target": "T1, protein kinase A", "test": "Incubation of various modified surfaces (glass, cellulose, polypropylene) with protein kinase A (FIG. 2, Example 30)", "type": "biochemical", "conditions": "protein kinase A 2 U/mL, 30 minutes at 25° C.", "method": "FIG. 2. The peptide Leu-Arg-Arg-Ala-Ser-Leu-Gly-NH2 and the control peptide […], each modified at the N-terminus with the dipeptide cysteinyl-β-alanine, were coupled to a maleinimido-functionalised surface by a Michael addition (Example 1; maleinimidobutyryl-β-alanine-functionalised cellulose as well as maleinimidobutyryl-β-alanine-functionalised, modified polypropylene membranes). The surfaces thus modified were first pre-incubated for 10 minutes using 10 mL of 100 μM ATP solution in 50 mM of sodium phosphate buffer pH 7.5. […] (Example 30). The phosphorylation of the corresponding peptides was detected using a FUJIFILM PhosphorImager. The signal intensity of the respective spot is given below the figures. […] In the case of the modified glass surfaces, however, the signal for the substrate amino acid sequence is a factor of 4-5 larger than the signal for the corresponding control amino acid sequence. […]\nAfter drying the glass surface the quantity of radioactive phosphate incorporated in the glass-surface-bound peptides was determined using a PhosphorImager system (FLA-3000, FUJIFILM) (see FIG. 2)."}}, "note": "BA1 = not defined here", "data": [{"substance": "Cys-BA1-Leu-Arg-Arg-Ala-Ser-Leu-Gly-NH2 ({Cys-BA1}-LRRASLG-NH2; reading uncertain; also: printed as Cys-BA1-Leu-Arg-Arg-Ala-Ser-Leu-Gly-NH2) [compound 85]", "values": [{"measurement": "signal intensity for the substrate amino acid sequence higher than that for the control product", "setting": "protein kinase A [1]", "result": 800, "unit": "%"}, {"measurement": "kinase-mediated phosphorylation signal on porous surfaces", "setting": "protein kinase A [2]; modified cellulose or polypropylene surfaces", "result": "only non-specific binding of ATP or kinase to the peptides is measured"}, {"measurement": "signal for the substrate amino acid sequence larger than the signal for the corresponding control amino acid sequence", "setting": "protein kinase A [2]; modified glass surfaces", "result": "4-5 factor"}]}]}
